Key:
[1] = biological target: T1, human PD-L1 expressed on HEK293A cells (human, UniProt Q9NZQ7 19-290); experiment: FACS blocking assay on HEK293A/human PD-L1 cells; blocked ligand PD1-hFc (protocol of Example 6)
T1 construct: Full-length cDNA expressed stably; also called HEK293A/human PD-L1 cells; HEK293A/human PD-L1
Method: Briefly, 10⁵ HEK293A/human PD-L1 cells in 100 μl culture medium were seeded onto each well of 96-well plates, to which added 50 μl serially diluted anti-PD-L1 antibodies. After incubated at 4° C. for 1 hour, the plates were washed 3 times with PBST. […] After incubation at 4° C. for 1 hour, the plates were washed with PBST for 3 times, and added with PE coupled Goat Anti-human IgG (Cat #:PAI-86078, Thermofisher, US) diluted 500×. After incubation at 4° C. for 1 hour, the plates were washed with PBST for 3 times and then cell fluorescence was monitored using a FACS machine (BD).

[2] = biological target: T1, human PD-L1 expressed on HEK293A cells; experiment: FACS on HEK293A/human PD-L1 cells, serially diluted antibody (protocol of Example 4)
Method: (§1) To determine whether the anti-PD-L1 antibodies bound to human, monkey or mouse PD-L1s expressed on HEK293A cells, a cell-based binding assay was performed by FACS using the HEK293A cells stably overexpressing human, monkey and mouse PD-L1s respectively as generated in Example 1. Briefly, 10⁵ HEK293A cells in 100 μl culture medium were seeded onto each well of the 96-well plates, to which added 50 μl serially diluted anti-PD-L1 antibodies. After incubated at 4° C. for 1 hour, plates were washed 3 times with PBST. Then, APC coupled Goat Anti-Mouse IgG (Cat #:405308, BioLegend, US) diluted 500× was added to the plates. After incubation at 4° C. for 1 hour, the plates were washed with PBS for 3 times and then cell fluorescence was monitored using a FACS machine (BD).

[3] = biological target: T2, monkey PD-L1 expressed on HEK293A cells (monkey (cynomolgus), UniProt Q9NZQ7 19-290 (human entry)); experiment: FACS on HEK293A/monkey PD-L1 cells, serially diluted antibody (protocol of Example 4)
T2 construct: Full-length cDNA expressed stably; also called HEK293A/monkey PD-L1 cells; HEK293A/monkey PD-L1
T2 sequence (Q9NZQ7 other isoform, or with tags, fused parts or gaps limits assumed): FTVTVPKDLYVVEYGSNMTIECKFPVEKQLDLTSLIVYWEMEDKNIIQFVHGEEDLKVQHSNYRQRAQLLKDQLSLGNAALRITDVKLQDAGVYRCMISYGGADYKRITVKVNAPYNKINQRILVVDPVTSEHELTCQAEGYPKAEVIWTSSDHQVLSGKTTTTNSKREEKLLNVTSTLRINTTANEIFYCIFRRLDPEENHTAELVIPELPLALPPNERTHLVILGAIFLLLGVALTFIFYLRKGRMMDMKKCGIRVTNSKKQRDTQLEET
Method: as §1

human PD-L1 (ECD)-his = biological target: T3, human PD-L1 (ECD)-his (human, UniProt Q9NZQ7 19-238); experiment: ELISA on coated human PD-L1 (ECD)-his
T3 construct: Bought protein; it is not tied to the bought construct by a sentence of its own; also called recombinant human PD-L1(ECD)-his; Cat #:10084-H08H, Sino Biological; not shown: His tag
T3 sequence (Q9NZQ7 19-238): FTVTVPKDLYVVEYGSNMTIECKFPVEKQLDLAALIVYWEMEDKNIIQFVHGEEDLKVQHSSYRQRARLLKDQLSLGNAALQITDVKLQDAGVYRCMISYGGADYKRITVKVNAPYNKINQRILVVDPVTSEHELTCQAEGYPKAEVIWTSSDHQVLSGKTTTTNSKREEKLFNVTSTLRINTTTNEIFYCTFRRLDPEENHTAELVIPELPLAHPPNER
Method: The chimeric anti-PD-L1 antibodies were further characterized for their abilities of binding to human PD-L1, monkey PD-L1 and mouse PD-L1. Briefly, ELISA plates were coated with 500 ng/ml human PD-L1 (ECD)-his (Cat #:10084-H08H, Sino Biological, CN), 100 μl per well, at 4° C. overnight. The wells were blocked with 200 μl blocking buffer (PBS containing 1% BSA, 1% goat serum and 0.05% Tween 20) for 2 hours at room temperature, added and incubated with 100 μl serially diluted anti-PD-L1 antibodies (starting at 40 μg/ml) for 1 hour at room temperature. The plates were washed for 3 times with PBST (PBS+0.05% Tween 20), added with Goat-anti-human IgG-HRP (Cat #:31410, Thermal, US) diluted 5000×, and incubated for 1 hour at room temperature. Plates were developed with freshly prepared Ultra-TMB (Cat #:555214, BD, US) for 5 minutes at room temperature. Absorbance was read on a SpectraMax^R i3X reader (Molecular Devies, US) at 450 nm.

[4] = biological target: T4, mouse PD-L1 expressed on HEK293A cells (mouse, UniProt Q9EP73 19-290); experiment: FACS on HEK293A/mouse PD-L1 cells, serially diluted antibody (protocol of Example 4)
T4 construct: Full-length cDNA expressed stably; also called HEK293A/mouse PD-L1 cells; HEK293A/mouse PD-L1
T4 sequence (Q9EP73 19-290 limits assumed): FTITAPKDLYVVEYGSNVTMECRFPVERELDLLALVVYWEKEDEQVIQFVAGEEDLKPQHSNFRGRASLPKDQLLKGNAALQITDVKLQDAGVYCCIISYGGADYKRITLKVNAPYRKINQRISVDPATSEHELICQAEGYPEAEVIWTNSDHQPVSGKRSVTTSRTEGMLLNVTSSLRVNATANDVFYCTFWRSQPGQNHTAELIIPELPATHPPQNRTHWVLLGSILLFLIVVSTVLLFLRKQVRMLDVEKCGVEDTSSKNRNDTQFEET
Method: as §1

monkey PD-L1 (ECD)-his = biological target: T5, monkey PD-L1 (ECD)-his (monkey, UniProt Q9NZQ7 19-238 (human entry)); experiment: ELISA on coated monkey PD-L1 (ECD)-his
T5 construct: Bought protein; also called Cat #:90251-C08H, Sino Biological; not shown: His tag
T5 sequence (Q9NZQ7 other isoform, or with tags, fused parts or gaps): as the sequence (Q9NZQ7 19-238) above, with A33T, A34S, S62N, R68Q, Q82R, F173L, T185A, T192I, H215L counted along it
Method: (§2) Species-cross-reactivities of the anti-PD-L1 mAbs to monkey or mouse PD-L1s were further assessed by direct ELISA. Briefly, 96-well ELISA plates were coated with 500 ng/ml monkey PD-L1 (ECD)-his (Cat #:90251-C08H, Sino Biological, CN) or mouse PD-L1(ECD)-his (Cat #:50010-M08H, Sino Biological, CN), 100 μl per well, then added and incubated with 100 μl serially diluted anti-PD-L1 antibodies (starting at 40 μg/ml). The plates were then added and incubated with Goat anti-human IgG conjugated with HRP (Cat #:31410, Thermal, US) for 1 hour at room temperature. Plates were developed with freshly prepared Ultra-TMB (Cat #:555214, BD, US) for 5 minutes at room temperature, and absorbance was read on a SpectraMax^R i3X reader (Molecular Devies, US) at 450 nm.

mouse PD-L1(ECD)-his = biological target: T6, mouse PD-L1(ECD)-his (mouse, UniProt Q9EP73 19-239); experiment: direct ELISA on coated mouse PD-L1(ECD)-his
T6 construct: Bought protein; also called mouse PD-L1-his; Cat #:50010-M08H, Sino Biological; not shown: His tag
T6 sequence (Q9EP73 19-239): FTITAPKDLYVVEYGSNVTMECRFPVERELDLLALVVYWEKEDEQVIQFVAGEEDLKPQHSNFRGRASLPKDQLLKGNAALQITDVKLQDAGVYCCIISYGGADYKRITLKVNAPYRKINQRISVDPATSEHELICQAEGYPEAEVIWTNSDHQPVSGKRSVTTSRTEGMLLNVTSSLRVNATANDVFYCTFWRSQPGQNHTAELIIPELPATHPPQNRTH
Method: as §2

T1 sequence (Q9NZQ7 19-290 limits assumed): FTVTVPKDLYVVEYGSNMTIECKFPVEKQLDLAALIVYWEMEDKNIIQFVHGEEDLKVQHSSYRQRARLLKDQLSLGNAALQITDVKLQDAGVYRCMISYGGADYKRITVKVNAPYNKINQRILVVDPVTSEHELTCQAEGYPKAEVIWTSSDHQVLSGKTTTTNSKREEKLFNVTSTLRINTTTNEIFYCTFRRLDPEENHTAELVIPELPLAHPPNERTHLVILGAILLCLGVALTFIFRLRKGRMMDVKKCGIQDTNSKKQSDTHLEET

Binder | IC50 (read off the curve) [1] [µg/mL] | EC50 (read off the curve) [2] [µg/mL] | EC50 (read off the curve) [3] [µg/mL] | EC50 (human PD-L1 (ECD)-his) [nM] | binding result [4] | EC50 (monkey PD-L1 (ECD)-his) [nM] | binding result (mouse PD-L1(ECD)-his)
chimeric 3C2 antibody (antibody, human IgG1, kappa, N297A, V domains shown) VH: QVQLNQSGPELMKAGTSVKISCKASGYSFTDYHVNWVKQRPGQGLEWIGWIFPGSGRTFYTDKFKGKATLTVDLSFTTAYIMLNSLTSEDSAVYFCATDYGTSGYGLVYWGQGTSVTVSS VL: DIQMTQSSSYLSVSLGGRVTISCKASDRINNWLAWYQQKPGNAPRLLISGATSLETGVPSRFSGSGSGKDYTLSITSLQTEDVAVYYCQQYWNIPFTFGSGTKLEIKR | ~0.2 | ~0.1 | ~0.1 | 0.0456 | no binding (tested: LOG Con. about 4.6 (about 40000 ng/ml)) | 0.172 | no binding (tested: starting at 40 µg/ml)
chimeric 56E5 antibody (antibody, human IgG1, kappa, N297A, V domains shown) VH: EVQLQESGPGLAKPSQTLSLTCSVTGYSITSDYWNWIRKFPGNKLEYMGYISYTGSTYYNPSLKSRISITRDTSKNQYYLQLNSVTTEDTATYYCARYRDWDVRAMDYWGQGTSVTVSS VL: DIVMTQSPSSLTVTAGEKVTMNCKSSQSLLISGNQKNFLTWYQQKPGQPPKLLIYWASTRESGVPDRFTGSGSGTDFTLTISSVQAEDLAVYYCQNDFGFPFTFGSGTKLEIKR | ~0.03 | ~0.05 | ~0.04 | 0.348 | no binding (tested: LOG Con. about 4.6 (about 40000 ng/ml)) | 2.05 | no binding (tested: starting at 40 µg/ml)
